Reference: the supplement of paper PMC7125110
± gives the standard error. This sample holds only a part of the variants without activity.

B1: glmS ribozyme (parent)
chain: AUAAAAGCGCCAGAACUACAGAAAUGUAGUUGACGAGGAGGAGGUUUAUCGAAUUUUCGGCGGAUGCCUCCAAA

Assays:
Conditions in all cases: with glucosamine-6-phosphate
glucosamine-6-phosphate [1] = variants of: B1; assay: self-cleavage kobs at 40 uM GlcN6P; higher = faster cleavage; RNA array
How it was run: (§1)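 In situ transcription by E. coli RNA polymerase produced barcoded ribozyme variants on sequenced MiSeq chips, and a hybridised Cy3 probe tracked them at 37 °C. Glucosamine-6-phosphate was flowed in at 40 μM to 10 mM in HEPES/KCl/Mg(OAc)2 buffer. kcat and KM were taken from weighted Michaelis–Menten fits of kobs values from exponential decay fits.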

glucosamine-6-phosphate [2] = variants of: B1; assay: self-cleavage kobs at 640 uM GlcN6P; higher = faster cleavage; RNA array
How it was run: as §1

glucosamine-6-phosphate [3] = variants of: B1; assay: self-cleavage kobs at 160 uM GlcN6P; higher = faster cleavage; RNA array
How it was run: as §1

glucosamine-6-phosphate [4] = variants of: B1; assay: self-cleavage kobs at 10000 uM GlcN6P; higher = faster cleavage; RNA array
How it was run: as §1

glucosamine-6-phosphate [5] = variants of: B1; assay: self-cleavage kobs at 2500 uM GlcN6P; higher = faster cleavage; RNA array
How it was run: as §1

Row | Variant | self-cleavage kobs at 40 uM GlcN6P (glucosamine-6-phosphate [1]) | self-cleavage kobs at 640 uM GlcN6P (glucosamine-6-phosphate [2]) | self-cleavage kobs at 160 uM GlcN6P (glucosamine-6-phosphate [3]) | self-cleavage kobs at 10000 uM GlcN6P (glucosamine-6-phosphate [4]) | self-cleavage kobs at 2500 uM GlcN6P (glucosamine-6-phosphate [5])
1 | G29C U30G U31A C50U | < 1e-05 s⁻¹ | < 1e-05 s⁻¹ | – | – | –
2 | C11G U55C | < 1e-05 s⁻¹ | < 1e-05 s⁻¹ | < 1e-05 s⁻¹ | – | –
3 | A53U U54C C67A | 0.000138 ± 2.9e-05 s⁻¹ | – | – | 0.00429 ± 0.0016 s⁻¹ | –
4 | U56G G62C | < 1e-05 s⁻¹ | – | < 1e-05 s⁻¹ | – | < 1e-05 s⁻¹
5 | G43U U49A G60A C68U | < 1e-05 s⁻¹ | – | – | < 1e-05 s⁻¹ | –
6 | A12C A15C A42U U57G C61G C71U | < 1e-05 s⁻¹ | – | < 1e-05 s⁻¹ | – | < 1e-05 s⁻¹
7 | A14G U54A G59A | < 1e-05 s⁻¹ | – | – | 0.000121 ± 3.2e-05 s⁻¹ | 8.37e-05 ± 2.7e-05 s⁻¹
8 | C8A A48C G59U | < 1e-05 s⁻¹ | – | – | < 1e-05 s⁻¹ | –
9 | G35A U49G | < 1e-05 s⁻¹ | – | – | – | –
10 | A52C G60A G66A | < 1e-05 s⁻¹ | < 1e-05 s⁻¹ | < 1e-05 s⁻¹ | – | –
11 | G32U G41A G66C C68G | < 1e-05 s⁻¹ | – | < 1e-05 s⁻¹ | < 1e-05 s⁻¹ | < 1e-05 s⁻¹
12 | A6U G13C | < 1e-05 s⁻¹ | < 1e-05 s⁻¹ | – | – | < 1e-05 s⁻¹
13 | A42G U69A | 0.000758 ± 0.00012 s⁻¹ | 0.00094 ± 0.00029 s⁻¹ | 0.000231 ± 0.00011 s⁻¹ | – | 0.000947 ± 0.0003 s⁻¹
14 | A15U A52C G59A C70A | < 1e-05 s⁻¹ | – | – | – | –
15 | U31C A48U C50A A53C U65G G66A | < 1e-05 s⁻¹ | – | – | < 1e-05 s⁻¹ | < 1e-05 s⁻¹
16 | G38U U56G C61A C68G | 0.000276 ± 7.7e-05 s⁻¹ | – | – | 6.19e-05 ± 2.1e-05 s⁻¹ | –
17 | A48C A64G | < 1e-05 s⁻¹ | – | < 1e-05 s⁻¹ | 6.31e-05 ± 1.3e-05 s⁻¹ | –
18 | U31G C34U G59A | < 1e-05 s⁻¹ | < 1e-05 s⁻¹ | – | < 1e-05 s⁻¹ | < 1e-05 s⁻¹
19 | C16G G59C | < 1e-05 s⁻¹ | < 1e-05 s⁻¹ | < 1e-05 s⁻¹ | < 1e-05 s⁻¹ | < 1e-05 s⁻¹
20 | U46G U47G G59A U65G | < 1e-05 s⁻¹ | – | – | – | –
21 | A6U C8A | < 1e-05 s⁻¹ | – | < 1e-05 s⁻¹ | < 1e-05 s⁻¹ | < 1e-05 s⁻¹
22 | G9C U47G | < 1e-05 s⁻¹ | – | – | < 1e-05 s⁻¹ | –
23 | C16G A48G C68U | < 1e-05 s⁻¹ | – | – | < 1e-05 s⁻¹ | –
24 | G35C C71G | < 1e-05 s⁻¹ | < 1e-05 s⁻¹ | < 1e-05 s⁻¹ | – | –
25 | A12G C16A U30G A36G | < 1e-05 s⁻¹ | – | – | – | –

Row | Variant | self-cleavage kobs at 40 uM GlcN6P (glucosamine-6-phosphate [1]) | self-cleavage kobs at 640 uM GlcN6P (glucosamine-6-phosphate [2]) | self-cleavage kobs at 160 uM GlcN6P (glucosamine-6-phosphate [3]) | self-cleavage kobs at 10000 uM GlcN6P (glucosamine-6-phosphate [4]) | self-cleavage kobs at 2500 uM GlcN6P (glucosamine-6-phosphate [5])
26 | U30C G40C U49G G51A | < 1e-05 s⁻¹ | – | – | < 1e-05 s⁻¹ | –
27 | G35U C68G | 0.000484 ± 0.00019 s⁻¹ | – | – | – | –
28 | G7U C8U C67U | < 1e-05 s⁻¹ | – | – | – | –
29 | A53G C70U | 0.00158 ± 0.00015 s⁻¹ | 0.0139 ± 0.0036 s⁻¹ | 0.00129 ± 0.00027 s⁻¹ | 0.0616 ± 0.014 s⁻¹ | –
30 | A6G A14U U31C C50G | 4.57e-05 ± 2.1e-05 s⁻¹ | – | – | 0.000265 ± 9.7e-05 s⁻¹ | –
31 | C11U U46A | < 1e-05 s⁻¹ | – | < 1e-05 s⁻¹ | 9.01e-05 ± 1.7e-05 s⁻¹ | 4.03e-05 ± 1.7e-05 s⁻¹
32 | G38U A42C | < 1e-05 s⁻¹ | – | < 1e-05 s⁻¹ | < 1e-05 s⁻¹ | –
33 | C10G C70U | < 1e-05 s⁻¹ | – | – | – | –
34 | A15C C61A | < 1e-05 s⁻¹ | – | – | < 1e-05 s⁻¹ | –
35 | G43U G59C | < 1e-05 s⁻¹ | < 1e-05 s⁻¹ | < 1e-05 s⁻¹ | < 1e-05 s⁻¹ | < 1e-05 s⁻¹
36 | G37C G43A C61A | < 1e-05 s⁻¹ | – | – | < 1e-05 s⁻¹ | –
37 | A12G A15G A53C C67G | < 1e-05 s⁻¹ | – | – | – | –
38 | G44A A64C | < 1e-05 s⁻¹ | < 1e-05 s⁻¹ | – | < 1e-05 s⁻¹ | < 1e-05 s⁻¹
39 | A12C C34G | < 1e-05 s⁻¹ | – | < 1e-05 s⁻¹ | < 1e-05 s⁻¹ | –
40 | G35U U45A G63C C71G | < 1e-05 s⁻¹ | – | – | < 1e-05 s⁻¹ | < 1e-05 s⁻¹
41 | C10G G32U C58A C70G | 5.06e-05 ± 1.8e-05 s⁻¹ | – | – | – | –
42 | A6U U49C | < 1e-05 s⁻¹ | – | < 1e-05 s⁻¹ | < 1e-05 s⁻¹ | < 1e-05 s⁻¹
43 | G13U C50G C61G G62A U65G C68U | 9.2e-05 ± 3.1e-05 s⁻¹ | – | – | 3.93e-05 ± 1.7e-05 s⁻¹ | –
44 | G9A U47C G51U G63A | < 1e-05 s⁻¹ | – | – | < 1e-05 s⁻¹ | < 1e-05 s⁻¹
45 | C50G U65A | 6.61e-05 ± 1.9e-05 s⁻¹ | 0.00136 ± 0.00038 s⁻¹ | 6.9e-05 ± 3e-05 s⁻¹ | – | 0.000972 ± 0.00037 s⁻¹
46 | A33C A36G C67G | < 1e-05 s⁻¹ | – | – | – | –
47 | G7U G62U | < 1e-05 s⁻¹ | < 1e-05 s⁻¹ | < 1e-05 s⁻¹ | – | < 1e-05 s⁻¹
48 | G7A A12U A52U | < 1e-05 s⁻¹ | – | – | – | –
49 | C8U G13U | < 1e-05 s⁻¹ | < 1e-05 s⁻¹ | – | < 1e-05 s⁻¹ | < 1e-05 s⁻¹
